By Km is commonly meant the substrate concentration at which the rate is half of its maximum. The kcat is the number of substrate molecules converted per active site and unit of time at saturation. For orientation: kcat/Km means the second-order rate constant that governs catalysis at low substrate concentration.

The data set concerns Nc1nc(=O)[nH]cc1F. The experiment in a line: steady-state kinetics. The data set is classed as biochemical, Saccharomyces cerevisiae. The settings on record: Zn2+.

With “yeast cytosine deaminase (yCD) (Saccharomyces cerevisiae S288C; E64A)”, the Km turned out to be 33 ± 6 mM, the catalytic constant (kcat) worked out at 7.3e-05 ± 6e-06 s⁻¹ and the kcat/Km was found to be 0.0022 M⁻¹ s⁻¹.
On to “yeast cytosine deaminase (yCD) (Saccharomyces cerevisiae S288C; E64D)”, for which the Km is 19 ± 6 mM, the kcat came to 0.0051 ± 0.001 s⁻¹ and the kcat/Km is 0.26 M⁻¹ s⁻¹.

Values taken from article PMC3272785.
